# Measurements published in paper PMC4341974 (Science translational medicine, 2014).
# Substitutions are numbered along the chain they refer to. Like-named read-outs stand apart in the source and are kept apart here.
# B1: 37E1 single-chain antibody fragment (scFv) on yeast (scFv, V domains shown)
# VH: EVQLVESGGGLVQPGGSLNLSCAASGFVFSRYWMSWVRQAPGKGLEWIGEINPDSSTINYTSSLKDKFIISRDNAKNTLYLQMNKVRSEDTALYYCACLITTEDYWGQGTSVTVSS
# VL: QIVLTQSPSSMYASLGERVTIPCKASQDINSYLSWFQQKPGKSPKTLIYRANRLVDGVPSRFSGSGSGQDYSLTISSLEYEDMGIYYCLQYDEFPYTFGGGTKLEIK
# B2: B5 single-chain antibody fragment (scFv) on yeast (scFv, V domains shown)
# VH: B1 VH with A24V
# VL: B1 VL with R50Y
# B3: B5 intact IgG (antibody, V domains shown)
# VH: B1 VH with A24V
# VL: B1 VL with R50Y
# Legend:
# [1] = target: integrin αvβ8 on β8-expressing HT1080 cells (wild-type β8) (human (endogenous in HT1080) | human) (UniProt P06756); assay: flow cytometry on cells
# integrin αvβ8 on β8-expressing HT1080 cells (wild-type β8) (human (endogenous in HT1080) | human), sequence (P06756 31-1048, chain 1 of 2): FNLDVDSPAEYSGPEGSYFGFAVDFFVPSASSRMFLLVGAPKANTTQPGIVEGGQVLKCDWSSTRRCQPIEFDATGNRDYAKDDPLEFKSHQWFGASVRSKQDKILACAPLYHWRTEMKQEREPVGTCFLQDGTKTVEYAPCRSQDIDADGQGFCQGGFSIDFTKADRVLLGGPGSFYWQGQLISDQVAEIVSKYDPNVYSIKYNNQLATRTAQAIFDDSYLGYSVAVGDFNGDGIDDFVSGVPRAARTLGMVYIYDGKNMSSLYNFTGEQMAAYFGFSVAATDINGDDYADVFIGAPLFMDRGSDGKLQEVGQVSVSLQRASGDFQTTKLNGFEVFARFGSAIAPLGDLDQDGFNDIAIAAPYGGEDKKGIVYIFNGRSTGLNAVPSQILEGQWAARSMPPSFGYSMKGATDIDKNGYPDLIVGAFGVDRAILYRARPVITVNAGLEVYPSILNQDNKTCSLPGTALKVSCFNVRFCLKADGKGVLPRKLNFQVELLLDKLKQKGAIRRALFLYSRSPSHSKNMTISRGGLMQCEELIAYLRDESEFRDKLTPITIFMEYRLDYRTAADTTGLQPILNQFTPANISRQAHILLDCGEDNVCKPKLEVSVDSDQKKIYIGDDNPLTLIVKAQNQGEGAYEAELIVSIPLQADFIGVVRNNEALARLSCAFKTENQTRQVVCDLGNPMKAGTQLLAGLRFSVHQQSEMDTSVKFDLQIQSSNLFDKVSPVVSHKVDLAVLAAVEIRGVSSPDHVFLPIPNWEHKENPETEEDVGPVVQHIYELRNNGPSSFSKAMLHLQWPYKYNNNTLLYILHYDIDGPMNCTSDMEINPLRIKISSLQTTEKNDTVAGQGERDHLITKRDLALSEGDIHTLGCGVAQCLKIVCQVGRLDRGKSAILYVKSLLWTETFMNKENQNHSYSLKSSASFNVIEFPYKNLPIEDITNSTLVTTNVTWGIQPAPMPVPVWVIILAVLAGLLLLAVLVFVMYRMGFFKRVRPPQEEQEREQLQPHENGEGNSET
# integrin αvβ8 on β8-expressing HT1080 cells (wild-type β8) (human (endogenous in HT1080) | human), sequence (P26012 43-769, chain 2 of 2, further chain): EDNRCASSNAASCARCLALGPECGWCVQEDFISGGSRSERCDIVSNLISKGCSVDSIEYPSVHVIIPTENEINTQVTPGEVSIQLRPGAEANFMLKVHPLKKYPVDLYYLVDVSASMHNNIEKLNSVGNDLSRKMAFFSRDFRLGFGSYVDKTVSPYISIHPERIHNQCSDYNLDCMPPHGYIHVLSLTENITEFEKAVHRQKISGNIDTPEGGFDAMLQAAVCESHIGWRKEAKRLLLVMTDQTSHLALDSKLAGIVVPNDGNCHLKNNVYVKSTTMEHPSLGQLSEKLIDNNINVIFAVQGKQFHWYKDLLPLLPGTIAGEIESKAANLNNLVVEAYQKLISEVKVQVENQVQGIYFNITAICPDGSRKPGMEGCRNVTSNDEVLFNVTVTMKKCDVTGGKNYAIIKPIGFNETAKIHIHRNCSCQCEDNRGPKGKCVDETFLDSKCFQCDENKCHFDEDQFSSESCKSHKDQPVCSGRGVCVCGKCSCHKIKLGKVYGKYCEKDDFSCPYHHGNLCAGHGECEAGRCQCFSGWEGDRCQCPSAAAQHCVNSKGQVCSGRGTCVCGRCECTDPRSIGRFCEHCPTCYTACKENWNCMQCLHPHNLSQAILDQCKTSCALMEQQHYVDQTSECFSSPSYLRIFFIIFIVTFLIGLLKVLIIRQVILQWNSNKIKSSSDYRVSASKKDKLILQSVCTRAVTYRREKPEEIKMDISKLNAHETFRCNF
# [2] = target: T1, integrin αvβ8 (construct of the affinity and cross-competition measurements, not told) (Homo sapiens, UniProt P06756;P26012); assay: flow cytometry on cells
# T1 sequence (P06756 31-1048, chain 1 of 2): as the sequence (P06756 31-1048, chain 1 of 2) above
# T1 sequence (P26012 43-769, chain 2 of 2): as the sequence (P26012 43-769, chain 2 of 2, further chain) above
# [3] = target: T1, integrin αvβ8 (construct of the …)
molecule,measurement,setting,value
latency-associated peptide (from UniProt P01137 30-278) (ligand),percent decrease of B5 binding to β8-expressing HT1080 cells,[1],29%
B1,Kd,[2],0.118 µM
B2,Kd,[2],0.0154 µM
B3,Kd,[3],0.00054 µM
